Experimental data: paper PMC12849132

Molecular target: T1, PhaR (Ralstonia eutropha H16 (Cupriavidus necator)) (UniProt Q0KBP6)
T1 sequence: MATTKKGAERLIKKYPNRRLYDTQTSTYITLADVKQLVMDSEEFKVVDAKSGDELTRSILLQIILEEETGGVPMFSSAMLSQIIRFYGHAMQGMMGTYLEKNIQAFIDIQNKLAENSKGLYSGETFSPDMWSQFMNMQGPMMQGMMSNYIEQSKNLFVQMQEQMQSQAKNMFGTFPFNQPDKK
Experiment: EMSA
Settings: EMSA: 0-250 ng PhaR, ~75 ng FAM-DNA, 5 uL master mix (1.75 uL 10x TBE, 0.25 uL 10 mg/mL herring sperm DNA, 3 uL DNA), 30 min at 37 C, 7.5% native PAGE

Row | Sequence | binding
1 | ATCGAATTCTGTATTCAGAGATCCGTTCCAAGCGTCTGGGGTGAAGTGCGCCCTACACATGTCATGCACTGCAACATTTCTGCGTAAGCACATGTAAATTTAGAGACGTACGATGCACTTTTATTGTCCTGTTTTAAAGACTTTTTGGGTATATACCTAGGGATCAAATTAGAGGAAACCCTCTAGGATTCGCACTCGGATGCT (double strand) [F1 (BS1, phaP3)] | binds
2 | ATCGAATTCTGTATTCAGAGATCCGTTCCAAGCGTCTGGGGTGAAGTGCGCCCTACACATGTCATGCACTGCAACATTTCTGCGTAAGCACATGTAAATTTAGAGACGTACGATGCACTTTTATTGTCCTGTTTTAAAGACTTTTTGGGTATATACCTAGGGATCAAATTAGAGGAAACCCTCTAGGATTCGCACTCGGATGCTGCGCTGCAGGATTGGTGGCGCTGTCAATCCGGAAGCCAAACCGAAGCGGATTCACGTTGCAATCTGTTGCGCGAATCCGTTCGATCAATCCACAG (double strand) [F4 (BS1+BS2, phaP3)] | binds
3 | ATCGAATTCACGATGCACTTTTATTGTCCTGTTTTAAAGACTTTTTGGGTATATACCTAGGGATCAAATTAGAGGAAACCCTCTAGGATTCGCACTCGGATGCTGCGCTGCAGGATTGGTGGCGCTGTCAATCCGGAAGCCAAACCGAAGCGGATTCACGTTGCAATCTGTTGCGCGAATCCGTTCGATCAATCCACAG (double strand) [F2 (BS2, phaP3)] | binds more weakly
4 | GGCGCTGTCAATCCGGAAGCCAAACCGAAGCGGATTCACGTTGCAATCTGTTGCGCGAATCCGTTCGATCAATCCACAGGAGATTTTGCATGTCCCCTTTTATGCCCGAGCAATTTGCTGCAGTGCAAAAGTCCAGTCTGAACCAACTGTTCGCGCTGACGAACATGGCTTTTGACGGCGGA (double strand) [F3 (BS3, phaP3)] | binds more weakly
